Biological target: peptide substrate shown in FIG. 9a (Protease K substrate)

B1: Protease K (protein)
chain: AAQTNAPWGLARISSTSPGTSTYYYDESAGQGSCVYVIDTGIEASHPEFEGRAQMVKTYYYSSRDGNGHGTHCAGTVGSRTYGVAKKTQLFGVKVLDDNGSGQYSTIIAGMDFVASDKNNRNCPKGVVASLSLGGGYSSSVNSAAARLQSSGVMVAVAAGNNNADARNYSPASEPSVCTVGASDRYDRRSSFSNYGSVLDIFGPGTSILSTWIGGSTRSISGTSMATPHVAGLAAYLMTLGKTTAASACRYIADTANKGDLSNIPFGTVNLLAYNNYQA
ratio of the absorption at 700 nm/520 nm (750 nM peptide, Protease K up to 300 pM, 60 min, 20 C): With increasing amounts of protease K the spectrum shifts back toward the native spectrum seen in the gold nanoparticles alone and the ratio falls to nearly 0

Source: patent publication US20170226560
